Experimental findings from PMC2736960, “Cloning and characterization of a glucosyltransferase from Crocus sativus stigmas involved in flavonoid glucosylation” (BMC Plant Biology, 2009) are described below.

Assay type in all cases: biochemical, Crocus sativus
Substrate in data set [1]: O=c1ccn([C@@H]2O[C@H](CO[P@@](=O)(O)O[P@@](=O)(O)O[C@H]3O[C@H](CO)[C@@H](O)[C@H](O)[C@H]3O)[C@@H](O)[C@H]2O)c(=O)[nH]1
Kind of data set: HPLC of glucoside formed. The following applies: constant kaempferol as acceptor (level not given).

Substrate in data set [2]: O=c1c(O)c(-c2ccc(O)c(O)c2)oc2cc(O)cc(O)c12
Nature of the data set: HPLC of glucoside formed, Lineweaver-Burk. The following applies: 7-O-glucoside formation (preferred position), 2.5 mM UDP-glucose, 50 mM Tris-HCl pH 7.5, 14 mM 2-mercaptoethanol, 30°C. An excerpt:
(§1) HPLC of glucoside formed, Lineweaver-Burk on CsGT45

Substrate in data set [3]: O=c1c(O)c(-c2ccc(O)cc2)oc2cc(O)cc(O)c12
Kind of data set: HPLC of glucoside formed, Lineweaver-Burk. The following applies: 7-O-glucoside formation, 2.5 mM UDP-glucose, 50 mM Tris-HCl pH 7.5, 14 mM 2-mercaptoethanol, 30°C.
Text: as §1

B1: CsGT45 (Crocus sativus) (protein)
chain: MEQHQPNILVVTYPAQGHINPALHLAKHLAADTKGLLITFSTAISAHRKMFPESTEPDQEVEDGPITYIPFSDGYDDGFQRDKHDGKQFRSRFKTVGSNTLSAIIQNLEHRGRKVSCVIYTFFVSWAADVARQHAIPSVQYWIQPATVFAIYYHYFHGYESVVAAHSHDPSYPINLPGLSPVQVRDLPSFLTIKPDDPYAVVLSMIRDSFEGLDREETKTKVLVNTFGQLEADAILAVDKMDIIPVGPILPCKGGVSRGDLLKEDEKGYMEWLDSKPENSVVYVSLESLAVLKKQQKFLILKGLKDSGRPYLWVVRRDSGLEGVELGDWDGDGDGDNGMVVGWCSQVSVLSHPSVGCFVTHCGWNSTMESLASGVPTIGVPQWSDQPTCAALAEKDWGIGVRSEVNGDGILEGGELKRCLDLVLGDGERGVEIRRKVEFWKDKATEAISFGGSSDKNLRTFVDQITGYDPNVSSVGFWKDKAIHRQHCEESESASPS
A word on the Km: it is the concentration of substrate that gives half-maximal velocity. Turning to B1, the Km in data set [1] worked out at 600 µM; in data set [2], 21.50 ± 2.3 µM; in data set [3] it was 15.6 ± 1.2 µM.
